Test results: publication PMC12441119 (2025)

B1: STK4 (residues 1–326) K59R [human] / HOIP (residues 854–1072) [not stated] (parent complex)
chain 1: METVQLRNPPRRQLKKLDEDSLTKQPEEVFDVLEKLGEGSYGSVYKAIHKETGQIVAIRQVPVESDLQEIIKEISIMQQCDSPHVVKYYGSYFKNTDLWIVMEYCGAGSVSDIIRLRNKTLTEDEIATILQSTLKGLEYLHFMRKIHRDIKAGNILLNTEGHAKLADFGVAGQLTDTMAKRNTVIGTPFWMAPEVIQEIGYNCVADIWSLGITAIEMAEGKPPYADIHPMRAIFMIPTNPPPTFRKPELWSDNFTDFVKQCLVKSPEQRATATQLLQHPFVRSAKGVSILRDLINEAMDVKLKRQESQQREVDQDDEENSEEDEMD
chain 2: EYQAQGLAMYLQENGIDCPKCKFSYALARGGCMHFHCTQCRHQFCSGCYNAFYAKNKCPEPNCRVKKSLHGHHPRDCLFYLRDWTALRLQKLLQDNNVMFNTEPPAGARAVPGGGCRVIEQKEVPNGLRDEACGKETPAGYAGLCQAHYKEYLVSLINAHSLDPATLYEVEELETATERYLHVRPQPLAGEDPPAYQARLLQKLTEEVPLGQSIPRRRK

Variants of: B1
Experiment: ITC

Kd	Variant
97.9 µM	chain 1 R231E
